Results from article PMC4022893, “Evidence for Follicle-stimulating Hormone Receptor as a Functional Trimer*” (The Journal of Biological Chemistry, 2014).

T1: human follicle-stimulating hormone receptor on CHO-DUKX cell membranes (human, UniProt P23945 18-695)
T1 construct: follicle-stimulating hormone receptor, human, expressed in CHO-DUKX cells; Used as isolated membranes, not live cells; also called FSHR; hFSHR; source: CHO-DUKX cells expressing the human FSH receptor, membrane preparation (nitrogen cavitation, 100,000 x g pellet)
T1 sequence (looked up): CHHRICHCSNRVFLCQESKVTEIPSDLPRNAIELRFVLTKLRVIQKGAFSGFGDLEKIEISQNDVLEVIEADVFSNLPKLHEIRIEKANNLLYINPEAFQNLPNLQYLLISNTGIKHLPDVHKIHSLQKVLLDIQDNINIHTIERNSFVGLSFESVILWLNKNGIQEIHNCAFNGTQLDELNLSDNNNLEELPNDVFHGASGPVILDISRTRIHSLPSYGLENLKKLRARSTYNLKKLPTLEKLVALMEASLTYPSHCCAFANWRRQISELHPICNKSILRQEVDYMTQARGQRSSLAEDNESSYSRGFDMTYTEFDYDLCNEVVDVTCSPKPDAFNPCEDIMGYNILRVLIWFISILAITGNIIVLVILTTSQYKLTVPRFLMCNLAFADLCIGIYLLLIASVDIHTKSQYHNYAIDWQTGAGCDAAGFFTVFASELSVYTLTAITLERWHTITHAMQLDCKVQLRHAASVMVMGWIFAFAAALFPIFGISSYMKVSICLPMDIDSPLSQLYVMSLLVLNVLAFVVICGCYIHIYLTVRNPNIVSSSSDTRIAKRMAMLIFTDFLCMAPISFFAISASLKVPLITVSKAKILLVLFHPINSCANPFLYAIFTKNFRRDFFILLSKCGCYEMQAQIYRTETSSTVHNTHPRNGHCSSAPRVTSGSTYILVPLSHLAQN


Experiments:
[1] = biological target: T1, human follicle-stimulating hormone …; test: radioligand binding; 5 μg CHO-FSHR membrane with increasing concentrations of 125I-ligand; 10 mM Tris pH 7.4, 5 mM MgCl2, 0.2% BSA; 90 min at 37 °C; filtration; nonspecific binding with 500-fold excess of FSH; no Compound 5; details: one partner purified
[2] = biological target: T1, human follicle-stimulating hormone …; test: as above; details: one partner purified; remark: listed apart in the source
[3] = biological target: the molecule itself; test: crystal structure; FSH-FSHRED complex at 10 mg/ml, 20 °C, hanging drops, 0.1 M imidazole pH 8.0, 20% Jeffamine M-600; space group P3_(1)

Binder	receptor binding ratio of the N52D mutant to fully glycosylated FSH [1]	Kd [2] [nM]	stoichiometry N [3]
125I-N52D-FSH (FSH with Asn52 of the alpha-subunit mutated to aspartate) (ligand, no glycan at position 52; 125I label (chain not stated), glycoprotein hormones alpha chain (FSH alpha-subunit), human; Heterodimer; the other three glycosylation sites are unchanged; also called αN52D-FSH mutant; mutant-N52D; source: recombinant, prepared using the same protocols as the fully glycosylated FSH; 125I-labelled (PerkinElmer Life Sciences)) chain 1: not shown chain 2: NSCELTNITIAIEKEECRFCISINTTWCAGYCYTRDLVYKDPARPKIQKTCTFKELVYETVRVPGCAHHADSLYTYPVATQCHCGKCDSDSTDCTVRGLGPSYCSFGEMKE	~3	0.4	
full ectodomain of human FSHR (FSHRED, Ser16-Arg366) (domain or fragment, UniProt P23945 16-366, looked up, follicle-stimulating hormone receptor, human, full ectodomain, residues Ser16-Arg366; Three copies form a trimer in the crystal; also called FSHED; FSHR extracellular domain) SGCHHRICHCSNRVFLCQESKVTEIPSDLPRNAIELRFVLTKLRVIQKGAFSGFGDLEKIEISQNDVLEVIEADVFSNLPKLHEIRIEKANNLLYINPEAFQNLPNLQYLLISNTGIKHLPDVHKIHSLQKVLLDIQDNINIHTIERNSFVGLSFESVILWLNKNGIQEIHNCAFNGTQLDELNLSDNNNLEELPNDVFHGASGPVILDISRTRIHSLPSYGLENLKKLRARSTYNLKKLPTLEKLVALMEASLTYPSHCCAFANWRRQISELHPICNKSILRQEVDYMTQARGQRSSLAEDNESSYSRGFDMTYTEFDYDLCNEVVDVTCSPKPDAFNPCEDIMGYNILR			3
